± gives the standard deviation of the averaged measurements.
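Note: ATP exposure 15 min at 22 °C before imaging.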

This data set concerns ATP. In words: switch fluorescence ratio, 500 uM ATP over buffer (Cy3 cluster intensity, sum of 5 cycles each) (fold (ratio)); higher = stronger signal-on switching upon ATP binding; sequences stand for … in TCGTCGGCAGCGTCAGATGTGTATAAGAGACAGTTTTTTTTTTTTTTTTTTTTTTTTT…TC. Conditions: aptamer strand: ATP DNA aptamer (quencher-CACCTGGGGGAGTATTGCGGAGGAAGG + anchor), 100 nM annealed; ATP concentration: 500 uM. The procedure, abridged:
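The fluorescence ratio divides summed target-cycle Cy3 intensity by summed buffer-cycle Cy3 intensity for each cluster and is averaged per switch-domain sequence. Cy3-labelled switching-strand clusters on a modified Illumina MiSeq flow-cell were annealed to 100 nM quencher-labelled ATP aptamer, then imaged in selection buffer and again after 15 min with 500 uM ATP at 22 °C. Five such cycles were run, with NaOH stripping and re-annealing between them, and clusters outside 100-1000 RFU were excluded.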
Turning to CTAGGGTGTG, the switch fluorescence ratio stood at 0.988 ± 0.034.
Then TCATTCATGG, with 0.977 ± 0.011.
Under GGAGTAAATG stands 1.01 ± 0.015; under CGCTATATCG, 1.09 ± 0.081; under CATTGAGTTG, 0.973 ± 0.018.
Under AGAGGGAAGA stands 1.01 ± 0.037.
As to GATCGGGGGT, the switch fluorescence ratio turned out to be 1.01 ± 0.027.
For the sequence TAATTACTAT, the switch fluorescence ratio is 1.12 ± 0.17.
Then CTCGAAGTGG, with 0.996 ± 0.021; and GGGTGCTGTT, with 1.02 ± 0.036.
In the case of TTTAATCATC, the switch fluorescence ratio is 1.01 ± 0.026.
Under TGATCCTATG stands 0.992 ± 0.016; under CTTTTTGGGT, 0.968 ± 0.028; under GCGTTTCTAG, 0.992 ± 0.028.
Then AAATTCGATT, with 1.032 ± 0.0037.
For the sequence TCTAACAGCC, the switch fluorescence ratio was 1.06 ± 0.028.
Under TTTGGTAGAG stands 0.98 ± 0.018.
As to CCTAACCGTC, the switch fluorescence ratio turned out to be 1.156 ± 0.0056.
AGGTGAAAGT: the switch fluorescence ratio was determined as 0.983 ± 0.029.
In the case of TGTTACATGT, the switch fluorescence ratio turned out to be 1.04 ± 0.041.
With CATTCTTTTT, the switch fluorescence ratio was found to be 1.02 ± 0.049.
On to TGTGTAATTT, for which the switch fluorescence ratio was determined as 0.999 ± 0.012.
Under TGCTTCGACG stands 0.9996 ± 0.0012.
Turning to TTGACTTATT, the switch fluorescence ratio was 1 ± 0.043.
Then GGACGGGGAT, with 1 ± 0.015; and CACTGGGATT, with 1.01 ± 0.018; and GAGGGATTGT, with 1 ± 0.021.
Under AGTACTCTGT stands 1.01 ± 0.039.
Under ACGTCTTTGT stands 1 ± 0.088; under TGGGGTTGCC, 0.96 ± 0.026.
Regarding AGTTATAGCT, the switch fluorescence ratio was determined as 0.985 ± 0.014.
Then TTTCTTATTG, with 1.031 ± 0.0085; and GGGGGCGGTT, with 1.02 ± 0.026; and ATGTCGGATT, with 1.002 ± 0.0021.
Then GGGTATCACT, with 0.992 ± 0.016; and ACTTAGTTAA, with 1.02 ± 0.015; and AAATGTGGCG, with 1.03 ± 0.011.
Under GGGGGATCCG stands 0.983 ± 0.019; under CTTTTAATGG, 1.03 ± 0.068.
In the case of AGGGGGCTGG, the switch fluorescence ratio was determined as 0.977 ± 0.018.
Consider TAGGTTTTTC, for which the switch fluorescence ratio stood at 1.02 ± 0.078.
Under TGGGGGGCGG stands 1.02 ± 0.03; under TTTCCTGGGT, 1.14 ± 0.18.
In the case of GGGCCTGGTC, the switch fluorescence ratio is 1.02 ± 0.032.
Then ATCTGATGCG, with 0.981 ± 0.1; and TGTCTTTTGA, with 1.003 ± 0.0059; and TTTAGGTATG, with 0.987 ± 0.03.
Then ATGGAAGCTA, with 1.02 ± 0.013; and AGGTTAAGAC, with 0.99 ± 0.044; and GTGGCACTGT, with 0.989 ± 0.019.
Then AAGGAAATGT, with 1 ± 0.014.
Turning to GGGGAGCGGG, the switch fluorescence ratio is 0.99834 ± 0.00014.
Then ATGCCGGGAT, with 1.02 ± 0.02; and TGGGGATTCC, with 1.01 ± 0.016.
Then GTGAAGGTCG, with 0.927 ± 0.022.
As for GGGCTAGTCG, the switch fluorescence ratio is 1.01 ± 0.034.
Then AGAGTGGAGA, with 1.009 ± 0.0004.
Under ACAGGTTTGA stands 1.03 ± 0.021.
Under GGGGTTTAGG stands 0.989 ± 0.026; under TGTTAGGC, 1.01 ± 0.05.
For the sequence TGATAATAGT, the switch fluorescence ratio was 0.989 ± 0.021.
Then CTGGGGGCGG, with 0.986 ± 0.018; and AAACCCAGCT, with 0.988 ± 0.02; and TGAGGGCGGC, with 0.962 ± 0.12.
Then AAGTTGTGCG, with 0.986 ± 0.029.
Under TGCCTACGGG stands 1.02 ± 0.028; under TCAGGACGGG, 0.992 ± 0.02.
For the sequence AACGTCTTTT, the switch fluorescence ratio was 0.9826 ± 0.0038.
Then TGGGATTAGA, with 1.021 ± 0.008.
Then GGCTATCGGT, with 0.978 ± 0.035; and CGTAGGCCGA, with 0.952 ± 0.068.
AAGACAGGCC: the switch fluorescence ratio worked out at 1.03 ± 0.014.
Then TTGTAATTTT, with 0.991 ± 0.017; and TAGTTACACA, with 1.04 ± 0.035.
Under GGGGTGGGCA stands 1 ± 0.011.
Under ATAAGTGCAT stands 1 ± 0.016; under CGTTTTGAGG, 0.96 ± 0.034.
Take CAGGGGAGAG: the switch fluorescence ratio is 0.999 ± 0.027.

Values taken from the supplement of paper PMC10126150.
